Data from patent US11547761B1, “Antibody adjuvant conjugates” (The Board of Trustees of the Leland Stanford Junior …, priority 2016, dated 2023).

Test system: human APCs (myeloid cells)
Experiment: APC-tumor co-culture / myeloid cell stimulation, surface markers by flow cytometry
Assay type: cell-based
Conditions: 18 hours of stimulation
Excerpt: Human antigen presenting cells (APCs) were negatively selected from human peripheral blood mononuclear cells obtained from healthy blood donors (Stanford Blood Center) by density gradient centrifugation using a RosetteSep Human Monocyte Enrichment Cocktail (Stem Cell Technologies) containing monoclonal antibodies against CD2, CD3, CD8, CD19, CD56, CD66b and CD235a. Immature APCs were subsequently purified to >97% purity via negative selection using an EasySep Human Monocyte Enrichment Kit without CD16 depletion containing monoclonal antibodies against CD2, CD3, CD19, CD20, CD56, CD66b, CD123 and CD235a.
Tumor cells were resuspended in PBS with 0.1% fetal bovine serum (FBS) at 1 to 10×10^6 cells/mL. Cells were subsequently incubated with 2 μM CFSE to yield a final concentration of 1 μM. […]
2×10^5 APCs were incubated with or without 6.5×10^5 autologous or allogeneic CFSE-labeled tumor cells in 96-well plates (Corning) containing IMDM medium (Gibco) supplemented with 10% fetal bovine serum, 100 U/mL penicillin, 100 μg/mL streptomycin, 2 mM L-glutamine, sodium pyruvate, non-essential amino acids, 50 μM 2-ME and, where indicated, various concentrations of anti-tumor antibody and the indicated adjuvants. Cells and cell-free supernatants were analyzed after 18 hours via flow cytometry. […]

B1: Nivolumab IgG1 immunoconjugate (conjugate, chains of the INN, looked up)
VH: QVQLVESGGGVVQPGRSLRLDCKASGITFSNSGMHWVRQAPGKGLEWVAVIWYDGSKRYYADSVKGRFTISRDNSKNTLFLQMNSLRAEDTAVYYCATNDDYWGQGTLVTVSS
VL: EIVLTQSPATLSLSPGERATLSCRASQSVSSYLAWYQQKPGQAPRLLIYDASNRATGIPARFSGSGSGTDFTLTISSLEPEDFAVYYCQQSSNWPRTFGQGTKVEIK
modifications: IgG1 adjuvant immunoconjugate
  APC / myeloid / dendritic cell activation (overall): very potent
